Data as given in patent US8022188B2, “Immunosuppressant binding antibodies and methods of obtaining and using same” (Abbott Laboratories, priority 2006, dated 2011).
Read-outs that look alike come from different tables or passages of the source.

Tests used:
[1] = cited from earlier work
[2] = Kinetic Exclusion Assay (KinExA) affinity determination of IgG; format: binding; settings: for Fold Improvement: KD, relative to 1-60-46 WT IgG
Procedure: The equilibrium dissociation constants for both the 1-60-46 AM2 IgG and the 1-60-46 WT mAb IgG produced from the murine hybridoma cell line 1-60-46 were determined using Kinetic Exclusion Assay (KinExA®), available from Sapidyne Instruments (Boise, Id.) (See, Darling and Brault, ASSAY and Drug Development Technologies, 2(6):647-657 (2004)). A constant amount of IgG antibody (AM2 or WT) was incubated with various concentrations (10^−8 M to 10^−13 M) of tacrolimus drug (commercially available from Astellas Pharma, Inc., Tokyo, Japan) and allowed to come to equilibrium (2 hours to 14 hours) before sampling. The amount of free binding sites was determined by injecting the antibody:tacrolimus reaction mixture over bt-tacro immobilized to a solid-phase. Tacrolimus IgG antibody bound to the bt-tacro immobilized to the solid-phase was subsequently detected by injecting goat anti-mouse polyclonal antibody conjugates (GAM) to Cy5 (GAM-Cy5) fluorescent dye. The degree of GAM-Cy5 bound was proportional to the amount of tacrolimus IgG bound to the immobilized bt-tacro and was detected after excitation with the appropriate wavelength. The KD was determined by analyzing the amount of free binding sites versus the amount of antigen present in the reaction sample using software provided by the manufacturer (Sapidyne Instruments; Boise, Id.).

improvement in KD relative to the 1-60-46 WT IgG ([2]; physiological diluent) | Kd ([2]; physiological diluent (PBS pH 7.4, 1% BSA), read-out: KD (no MeOH)) | improvement in KD relative to the 1-60-46 WT IgG ([2]; selection diluent) | Kd ([2]; selection diluent (PBS, 1% BSA, 10% methanol), read-out: Kd (10% MeOH)) | Molecule | in vivo potency greater than cyclosporine CsA [1] | Fold Improvement ([2]; 10% MeOH) | Fold Improvement ([2]; no MeOH)
 |  |  |  | C=CC[C@@H]1/C=C(\C)C[C@H](C)C[C@H](OC)[C@H]2O[C@@](O)(C(=O)C(=O)N3CCCC[C@H]3C(=O)O[C@H](/C(C)=C/[C@@H]3CC[C@@H](O)[C@H](OC)C3)[C@H](C)[C@@H](O)CC1=O)[C@H](C)C[C@@H]2OC [Tacrolimus] | 50-100 times |  | 
16 fold | 1.2 pM | 12 fold | 13 pM | 1-60-46 AM2 IgG: murine IgG2a/κ containing the H2-1A, L1-1B and L3-A mutations; SEQ ID NO:40 and 42 (antibody, Mouse) heavy: EVELVESGGDLVKPGGSLKLSCAASGFTFSSYGMSWVRQTPDKRLEWVATISSGGAWTFYPDSVKGRFTISRDNAKNTLSLQMSSLKSADTAMYYCSRQTDGYSWFPYWGQGTLVTVSASAKTTAPSVYPLAPVCGDTTGSSVTLGCLVKGYFPEPVTLTWNSGSLSSGVHTFPAVLQSDLYTLSSSVTVTSSTWPSQSITCNVAHPASSTKVDKKIEPRGPTIKPCPPCKCPAPNLLGGPSVFIFPPKIKDVLMISLSPIVTCVVVDVSEDDPDVQISWFVNNVEVHTAQTQTHREDYNSTLRVVSALPIQHQDWMSGKEFKCKVNNKDLPAPIERTISKPKGSVRAPQVYVLPPPEEEMTKKQVTLTCMVTDFMPEDIYVEWTNNGKTELNYKNTEPVLDSDGSYFMYSKLRVEKKNWVERNSYSCSVVHEGLHNHHTTKSFSRTPGK light: DVLMTQTPLSLPVSLGDQASISCKSSQGLVHSTGNTFLEWFLQKPGQSPKLLIYKISNRFSGVPDRFSGSGSGTDFTLKISRVESEDLGVYYCFQGSHAPLTFGAGTKLELKRASADAAPTVSIFPPSSEQLTSGGASVVCFLNNFYPKDINVKWKIDGSERQNGVLNSWTDQDSKDSTYSMSSTLTLTKDEYERHNSYTCEATHKTSTSPIVKSFNRNEC |  | 12x | 16x
